According to patent US20250361274A1, “PEPTIDE AND PEPTIDE-CONTAINING AGENT” (PEPTIDREAM INC., priority 2022, published 2025):
Numbered stars: 1 amine (or outer) side, 2 acyl side, 3 side chain; on linkers, the order of the positions; unused ones are H or OH. Bridge positions count the residues as written; N and C are the ends. Square brackets hold non-standard residues; d marks the D form. Side chains are listed from the residue outwards. Ends that are not written are not given here. Peptide text beside a SMILES is read from it. I, II: the chains in the order shown. * marks the point of attachment. ξ: configuration not given here. X6 = N=C(N)NCCC[C@H](CC(=O)[C@H](CCCCNC(=O)N1CCN(CC(=O)O)CC1)N[*:2])C(=O)C[C@@H](Cc1ccc(-c2ccccc2)nc1)C(=O)[*:1]; X7 = O=C(O)CCC(NC(=O)CCNC(=O)[C@H](CSCC(=O)[*:1])CC(=O)[C@H](CO)N[*:2])C(=O)O; X4 = O=C(O)c1ccc(C[C@H](N[*:1])C(=O)C[C@@H](CO)C(=O)[*:2])cc1; 3Pal(6-Ph) = N[C@@H](Cc1ccc(-c2ccccc2)nc1)C(=O)O; Phe(4-COOH) = N[C@@H](Cc1ccc(C(=O)O)cc1)C(=O)O; NMePhe(4-Me) = CN[C@@H](Cc1ccc(C)cc1)C(=O)O; Piperazinyl(4-CH2COOH) = O=C(O)CN1CCN(*)CC1; Bip = N[C@@H](Cc1ccc(-c2ccccc2)cc1)C(=O)O; Nle(6-COOH) = N[C@@H](CCCCC(=O)O)C(=O)O; X1 = N=C(CN)NCCC[C@H](N[*:1])C(=O)[*:2]; Phe(4-F) = N[C@@H](Cc1ccc(F)cc1)C(=O)O; cisHyp = O=C(O)[C@@H]1C[C@H](O)CN1; Hyp = O=C(O)[C@@H]1C[C@@H](O)CN1; NMeF = CN[C@@H](Cc1ccccc1)C(=O)O; Aad = N[C@@H](CCCC(=O)O)C(=O)O; Cha = N[C@@H](CC1CCCCC1)C(=O)O; Abu = CC[C@H](N)C(=O)O; X5 = O=C(C[*:1])[*:2]; CO = O=C([*:1])[*:2]; ξC = NC(CS)C(=O)O; βAla = NCCC(=O)O

What was measured:
[1] = biological target: T1, BMP7 (Homo sapiens, UniProt P18075); assay: BMP7 signal transduction inhibitory activity: SMAD1 phosphorylation by BMP7 stimulus, A549 cells; type: cell-based; conditions: for aLISA BMP7 (10 nM) % inh: BMP7 10 nM stimulus, peptide conc. in assay 1, 10, 100 nM; for aLISA BMP7: A549 cells, peptides of Synthesis 2
T1 sequence (P18075 293-431): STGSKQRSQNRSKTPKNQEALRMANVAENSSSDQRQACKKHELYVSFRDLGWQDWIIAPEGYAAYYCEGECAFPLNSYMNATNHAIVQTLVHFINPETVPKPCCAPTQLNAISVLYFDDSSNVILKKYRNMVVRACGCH
Summary of the method: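 A549 cells were stimulated with 10 nM BMP7, and peptide inhibition of signalling was measured as SMAD1 phosphorylation. Peptides were tested at three concentrations, in sets ranging from 1–100 nM to 100–1,000 nM, or as eight-point 1/3 dilution series starting at 100 nM or 1,000 nM.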

[2] = biological target: T2, BMP4 (Homo sapiens, UniProt P12644); assay: BMP4 signal transduction inhibitory activity: SMAD1 phosphorylation by BMP4 stimulus, AlphaLISA SureFire, A549 cells; type: cell-based; conditions: for aLISA BMP4 (0.2 nM) % inh: BMP4 0.2 nM stimulus, peptide conc. in assay 0.2, 2, 20 nM; for aLISA BMP4: A549 cells, peptides of Synthesis 2
T2 sequence (P12644 293-408): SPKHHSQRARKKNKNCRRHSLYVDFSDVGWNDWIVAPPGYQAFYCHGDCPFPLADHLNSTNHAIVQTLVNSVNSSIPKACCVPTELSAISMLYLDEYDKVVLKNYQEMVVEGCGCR

[3] = inhibition of SMAD1 phosphorylation by BMP7 stimulus, classes A-D, ND
[4] = inhibition of SMAD1 phosphorylation by BMP4 stimulus, classes A-C, ND

## 412 ([Phe(4-F)]G[NMeF]G[3Pal(6-Ph)]GDE[Cha][Aad][NMePhe(4-Me)]L[Phe(4-COOH)]C-NH2; not fully specified) [compound 412]
[1]
  aLISA BMP7 (10 nM) % inh: D (showed less than 30% of inhibitory activity in 10 nM-addition zone and showed 30% or more of inhibitory activity in 100 nM-addition zone)
[2]
  aLISA BMP4 (0.2 nM) % inh: ND (the inhibitory activity was less than 30% at the maximum concentration evaluated)

## 413 ([Phe(4-F)]G[NMeF]G[3Pal(6-Ph)]GDE[Cha][Aad][NMePhe(4-Me)]L[Phe(4-COOH)]C[βAla][dE]) [compound 413]
[1]
  aLISA BMP7 (10 nM) % inh: D (showed less than 30% of inhibitory activity in 10 nM-addition zone and showed 30% or more of inhibitory activity in 100 nM-addition zone)
[2]
  aLISA BMP4 (0.2 nM) % inh: ND (the inhibitory activity was less than 30% at the maximum concentration evaluated)

## 414 (FG[NMeF]G[3Pal(6-Ph)]GDE[Cha][Aad][NMeF]L[cisHyp]C-NH2; not fully specified) [compound 414]
[1]
  aLISA BMP7 (10 nM) % inh: D (showed less than 30% of inhibitory activity in 10 nM-addition zone and showed 30% or more of inhibitory activity in 100 nM-addition zone)
[2]
  aLISA BMP4 (0.2 nM) % inh: ND (the inhibitory activity was less than 30% at the maximum concentration evaluated)

## 415 (FGFGAGDEAEFLPCAE; not fully specified; MOD_RES 3 F represents Methyl-L-phenylalanine(MeF); MOD_RES 5 A represents (S)-2-Amino-3-(6-phenylpyridin-3-yl)propanoic acid(3Py6Ph); MOD_RES 9 A represents (S)-2-Amino-3-cyclohexylpropanoic acid(Cha); MOD_RES 10 E represents L-2-Amino adipic acid (Hgl); MOD_RES 11 F represents Methyl-L-phenylalanine(MeF); MOD_RES 13 P represents (2S,4S)-4-Hydroxypyrrolidine-2-carboxylic acid(P4Sh); MOD_RES 15 A) [compound 415]
[1]
  aLISA BMP7 (10 nM) % inh: D (showed less than 30% of inhibitory activity in 10 nM-addition zone and showed 30% or more of inhibitory activity in 100 nM-addition zone)
[2]
  aLISA BMP4 (0.2 nM) % inh: ND (the inhibitory activity was less than 30% at the maximum concentration evaluated)

## 416 ([Phe(4-F)]G[NMeF]G[3Pal(6-Ph)]GDE[Cha][Aad][NMePhe(4-Me)]L[cisHyp]C-NH2; not fully specified) [compound 416]
[1]
  aLISA BMP7 (10 nM) % inh: D (showed less than 30% of inhibitory activity in 10 nM-addition zone and showed 30% or more of inhibitory activity in 100 nM-addition zone)
[2]
  aLISA BMP4 (0.2 nM) % inh: ND (the inhibitory activity was less than 30% at the maximum concentration evaluated)

## 418 (FG[NMeF]G[3Pal(6-Ph)]GDE[Cha][Aad][NMeF]L[Abu]C-NH2; not fully specified) [compound 418]
[1]
  aLISA BMP7 (10 nM) % inh: D (showed less than 30% of inhibitory activity in 10 nM-addition zone and showed 30% or more of inhibitory activity in 100 nM-addition zone)
[2]
  aLISA BMP4 (0.2 nM) % inh: ND (the inhibitory activity was less than 30% at the maximum concentration evaluated)

## 419 (FG[NMeF]G[3Pal(6-Ph)]GDE[Cha][Aad][NMeF]L[Abu]C[βAla][dE]) [compound 419]
[1]
  aLISA BMP7 (10 nM) % inh: D (showed less than 30% of inhibitory activity in 10 nM-addition zone and showed 30% or more of inhibitory activity in 100 nM-addition zone)
[2]
  aLISA BMP4 (0.2 nM) % inh: ND (the inhibitory activity was less than 30% at the maximum concentration evaluated)

## 420 ([Phe(4-F)]G[NMeF]G[3Pal(6-Ph)]GDE[Cha][Aad][NMePhe(4-Me)]L[Abu]C-NH2; also: cyclic peptide, ring closure not given here) [compound 420]
[1]
  aLISA BMP7 (10 nM) % inh: D (showed less than 30% of inhibitory activity in 10 nM-addition zone and showed 30% or more of inhibitory activity in 100 nM-addition zone)
[2]
  aLISA BMP4 (0.2 nM) % inh: ND (the inhibitory activity was less than 30% at the maximum concentration evaluated)

## 421 ([Phe(4-F)]G[NMeF]G[3Pal(6-Ph)]GDE[Cha][Aad][NMePhe(4-Me)]L[Abu]C[βAla][dE]; also: cyclic peptide, ring closure not given here) [compound 421]
[1]
  aLISA BMP7 (10 nM) % inh: D (showed less than 30% of inhibitory activity in 10 nM-addition zone and showed 30% or more of inhibitory activity in 100 nM-addition zone)
[2]
  aLISA BMP4 (0.2 nM) % inh: ND (the inhibitory activity was less than 30% at the maximum concentration evaluated)

## CC(C)[C@@H]1NC(=O)[C@H](Cc2ccc(C(=O)O)cc2)NC(=O)[C@H](C(C)C)NC(=O)[C@H](CCCNC(=N)N)NC(=O)[C@H](CCC(=O)O)NC(=O)CSC[C@@H](C(=O)NCC(N)=O)NC(=O)[C@H](CO)NC(=O)[C@H](Cc2ccc(C(=O)O)cc2)NC(=O)[C@H](Cc2ccc(C(=O)O)cc2)NC(=O)[C@H](Cc2ccc(O)cc2)NC(=O)[C@H](Cc2ccc(-c3ccccc3)cc2)NC(=O)[C@@H]2C[C@@H](O)CN2C(=O)[C@H](Cc2ccc(O)cc2)NC(=O)[C@H](CCCCNC(=O)N2CCN(CC(=O)O)CC2)NC(=O)[C@H](Cc2ccc(-c3ccccc3)nc2)NC(=O)[C@H](CCCNC(=N)N)NC(=O)[C@H](CCCCNC(=O)N2CCN(CC(=O)O)CC2)NC1=O [Peptide 277] ({CH2CO}-ERV[Phe(4-COOH)]VK([CO-Piperazinyl(4-CH2COOH)])R[3Pal(6-Ph)]K([CO-Piperazinyl(4-CH2COOH)])Y[Hyp][Bip]Y[Phe(4-COOH)][Phe(4-COOH)]SCG-NH2; thioether N-17)
[1]; Table 2-2, 277 from 1,000 nM (1/3), 417 from 300 nM (1/4)
  IC50: 455 nM
[2]; Table 2-2, 277 from 20 nM (1/3), 417 from 300 nM (1/4), ND = IC50 was not calculated
  IC50: 0.073 nM

## CC(C)C[C@@H]1NC(=O)[C@H](Cc2ccc(O)cc2)NC(=O)[C@H](C(C)C)NC(=O)[C@H](CCCNC(=N)N)NC(=O)[C@H](CCCCC(=O)O)NC(=O)CSC[C@@H](C(=O)NCCC(=O)NC(CCC(=O)O)C(=O)O)CC(=O)[C@H](CO)NC(=O)[C@H](Cc2ccc(C(=O)O)cc2)NC(=O)[C@H](Cc2ccc(C(=O)O)cc2)NC(=O)[C@H](Cc2ccc(O)cc2)NC(=O)[C@H](Cc2ccc(-c3ccccc3)cc2)NC(=O)[C@H](C(C)C)NC(=O)[C@H](Cc2ccc(O)cc2)NC(=O)[C@@H]2CCCN2C(=O)[C@H](Cc2ccc(-c3ccccc3)nc2)NC(=O)[C@H](CCCNC(=N)CN)NC(=O)[C@H](CC(=O)O)NC1=O (some centres unmarked) [SEQ ID No. 84] ([Nle(6-COOH)]RVYLD[X1][3Pal(6-Ph)]PYV[Bip]Y[Phe(4-COOH)][Phe(4-COOH)]; linker N-C via X7)
[1]; [3]
  aLISA BMP7: C (showed less than 50% of inhibitory activity in 10 nM-addition zone and showed 50% or more of inhibitory activity in 100 nM-addition zone)
[2]; [4]
  aLISA BMP4: A (showed an inhibitory activity of 50% or more in a zone to which the peptide was added to in an amount of 0.2 nM)

## CC(C)C[C@@H]1NC(=O)[C@H](Cc2ccc(O)cc2)NC(=O)[C@H](C(C)C)NC(=O)[C@H](CCCNC(=N)N)NC(=O)[C@H](CCCCC(=O)O)NC(=O)CSC[C@@H](C(=O)NCC(N)=O)NC(=O)[C@H](CO)NC(=O)[C@H](Cc2ccc(C(=O)O)cc2)NC(=O)[C@H](Cc2ccc(C(=O)O)cc2)NC(=O)[C@H](Cc2ccc(O)cc2)NC(=O)[C@H](Cc2ccc(-c3ccccc3)cc2)NC(=O)[C@H](C(C)C)NC(=O)[C@H](Cc2ccc(O)cc2)NC(=O)[C@H](CO)NC(=O)[C@H](Cc2ccc(-c3ccccc3)nc2)NC(=O)[C@H](CCCNC(=N)CN)NC(=O)[C@H](CC(=O)O)NC1=O [SEQ ID No. 87] ({CH2CO}-[Nle(6-COOH)]RVYLD[X1][3Pal(6-Ph)]SYV[Bip]Y[Phe(4-COOH)][Phe(4-COOH)]SCG-NH2; thioether N-17)
[1]
  BMP7 inhibitory activity (in words): does not inhibit signal transduction of BMP7
[1]; [3]
  aLISA BMP7: ND (the inhibitory activity was less than 30% at the maximum concentration evaluated)
[2]
  BMP4 inhibitory activity (in words): same level of the BMP4 inhibitory activity as Noggin
[2]; [4]
  aLISA BMP4: A (showed an inhibitory activity of 50% or more in a zone to which the peptide was added to in an amount of 0.2 nM)

## CC(C)[C@@H]1NC(=O)[C@H](Cc2ccc(C(=O)O)cc2)NC(=O)[C@H](C(C)C)NC(=O)[C@H](CCCNC(=N)N)NC(=O)[C@H](CCC(=O)O)NC(=O)CSCC(C(=O)NCC(N)=O)NC(=O)[C@H](CO)CC(=O)[C@H](Cc2ccc(C(=O)O)cc2)NC(=O)[C@H](Cc2ccc(C(=O)O)cc2)NC(=O)[C@H](Cc2ccc(O)cc2)NC(=O)[C@H](Cc2ccc(-c3ccccc3)cc2)NC(=O)[C@@H]2C[C@@H](O)CN2C(=O)[C@H](Cc2ccc(O)cc2)NC(=O)[C@H](CCCCNC(=O)N2CCN(CC(=O)O)CC2)NC(=O)[C@H](Cc2ccc(-c3ccccc3)nc2)CC(=O)[C@H](CCCNC(=N)N)CC(=O)[C@H](CCCCNC(=O)N2CCN(CC(=O)O)CC2)NC1=O (stereo partly drawn) [SEQ ID No. 277, ClAc-E-R-V-F4COO-V-KCOpipzaa-R-3Py6Ph-KCOpipzaa-Y-Hyp-Bph-Y-F4COO-F4COO-S-C-G-NH2] (I: K([CO-Piperazinyl(4-CH2COOH)])Y[Hyp][Bip]Y[Phe(4-COOH)][X4][ξC]G-NH2 / II: ERV[Phe(4-COOH)]V; linker I:8-II:N via X5; linker I:N-II:C via X6)
[1]; 10 nM BMP7, peptide 1, 10, 100 nM
  aLISA BMP7: C (showed less than 50% of inhibitory activity in 10 nM-addition zone and showed 50% or more of inhibitory activity in 100 nM-addition zone)
[2]
  BMP4 inhibitory activity (in words): same level of the BMP4 inhibitory activity as Noggin
[2]; SMAD1 phosphorylation, peptide 0.02, 0.2, 2 nM
  aLISA BMP4: A (showed an inhibitory activity of 50% or more in a zone to which the peptide was added to in an amount of 0.2 nM)
